These are literature values, as cited in patent US12258594B2, “Cas proteins with reduced immunogenicity and methods of screening thereof” (THE BROAD INSTITUTE, INC., priority 2018, dated 2025).

The test system of data set [1] is target RNA. The note with it: LbuCas13a HEPN mutants.
The subject of data set [2] is target DNA. As to conditions: SaCas9 mutants.

B1: Phe995: LbuCas13a with Phe995 substituted with alanine (protein, UniProt C7NBY4 1-1159, looked up, variant F995A)
CRISPR-associated …: MKVTKVGGISHKKYTSEGRLVKSESEENRTDERLSALLNMRLDMYIKNPSSTETKENQKRIGKLKKFFSNKMVYLKDNTLSLKNGKKENIDREYSETDILESDVRDKKNFAVLKKIYLNENVNSEELEVFRNDIKKKLNKINSLKYSFEKNKANYQKINENNIEKVEGKSKRNIIYDYYRESAKRDAYVSNVKEAFDKLYKEEDIAKLVLEIENLTKLEKYKIREFYHEIIGRKNDKENFAKIIYEEIQNVNNMKELIEKVPDMSELKKSQVFYKYYLDKEELNDKNIKYAFCHFVEIEMSQLLKNYVYKRLSNISNDKIKRIFEYQNLKKLIENKLLNKLDTYVRNCGKYNYYLQDGEIATSDFIARNRQNEAFLRNIIGVSSVAYFSLRNILETENENDITGRMRGKTVKNNKGEEKYVSGEVDKIYNENKKNEVKENLKMFYSYDFNMDNKNEIEDFFANIDEAISSIRHGIVHFNLELEGKDIFAFKNIAPSEISKKMFQNEINEKKLKLKIFRQLNSANVFRYLEKYKILNYLKRTRFEFVNKNIPFVPSFTKLYSRIDDLKNSLGIYWKTPKTNDDNKTKEIIDAQIYLLKNIYYGEFLNYFMSNNGNFFEISKEIIELNKNDKRNLKTGFYKLQKFEDIQEKIPKEYLANIQSLYMINAGNQDEEEKDTYIDFIQKIFLKGFMTYLANNGRLSLIYIGSDEETNTSLAEKKQEFDKFLKKYEQNNNIKIPYEINEFLREIKLGNILKYTERLNMFYLILKLLNHKELTNLKGSLEKYQSANKEEAFSDQLELINLLNLDNNRVTEDFELEADEIGKFLDFNGNKVKDNKELKKFDTNKIYFDGENIIKHRAFYNIKKYGMLNLLEKIADKAGYKISIEELKKYSNKKNEIEKNHKMQENLHRKYARPRKDEKFTDEDYESYKQAIENIEEYTHLKNKVEFNELNLLQGLLLRILHRLVGYTSIWERDLRFRLKGEFPENQYIEEIFNAENKKNVKYKGGQIVEKYIKFYKELHQNDEVKINKYSSANIKVLKQEKKDLYIRNYIAHFNYIPHAEISLLEVLENLRKLLSYDRKLKNAVMKSVVDILKEYGFVATFKIGADKKIGIQTLESEKIVHLKNLKKKKLMTDRNSEELCKLVKIMFEYKMEEKKSEN
As to B1, the “cleavage of target and non-target ssRNA substrate” value in data set [1] was “significantly reduced the cleavage of both target and non-target ssRNA substrate”.

B2: Lys998: LbuCas13a with Lys998 substituted with alanine (protein, UniProt C7NBY4 1-1159, looked up, variant K998A)
CRISPR-associated …: MKVTKVGGISHKKYTSEGRLVKSESEENRTDERLSALLNMRLDMYIKNPSSTETKENQKRIGKLKKFFSNKMVYLKDNTLSLKNGKKENIDREYSETDILESDVRDKKNFAVLKKIYLNENVNSEELEVFRNDIKKKLNKINSLKYSFEKNKANYQKINENNIEKVEGKSKRNIIYDYYRESAKRDAYVSNVKEAFDKLYKEEDIAKLVLEIENLTKLEKYKIREFYHEIIGRKNDKENFAKIIYEEIQNVNNMKELIEKVPDMSELKKSQVFYKYYLDKEELNDKNIKYAFCHFVEIEMSQLLKNYVYKRLSNISNDKIKRIFEYQNLKKLIENKLLNKLDTYVRNCGKYNYYLQDGEIATSDFIARNRQNEAFLRNIIGVSSVAYFSLRNILETENENDITGRMRGKTVKNNKGEEKYVSGEVDKIYNENKKNEVKENLKMFYSYDFNMDNKNEIEDFFANIDEAISSIRHGIVHFNLELEGKDIFAFKNIAPSEISKKMFQNEINEKKLKLKIFRQLNSANVFRYLEKYKILNYLKRTRFEFVNKNIPFVPSFTKLYSRIDDLKNSLGIYWKTPKTNDDNKTKEIIDAQIYLLKNIYYGEFLNYFMSNNGNFFEISKEIIELNKNDKRNLKTGFYKLQKFEDIQEKIPKEYLANIQSLYMINAGNQDEEEKDTYIDFIQKIFLKGFMTYLANNGRLSLIYIGSDEETNTSLAEKKQEFDKFLKKYEQNNNIKIPYEINEFLREIKLGNILKYTERLNMFYLILKLLNHKELTNLKGSLEKYQSANKEEAFSDQLELINLLNLDNNRVTEDFELEADEIGKFLDFNGNKVKDNKELKKFDTNKIYFDGENIIKHRAFYNIKKYGMLNLLEKIADKAGYKISIEELKKYSNKKNEIEKNHKMQENLHRKYARPRKDEKFTDEDYESYKQAIENIEEYTHLKNKVEFNELNLLQGLLLRILHRLVGYTSIWERDLRFRLKGEFPENQYIEEIFNFENAKNVKYKGGQIVEKYIKFYKELHQNDEVKINKYSSANIKVLKQEKKDLYIRNYIAHFNYIPHAEISLLEVLENLRKLLSYDRKLKNAVMKSVVDILKEYGFVATFKIGADKKIGIQTLESEKIVHLKNLKKKKLMTDRNSEELCKLVKIMFEYKMEEKKSEN
Regarding B2, in data set [1], the “cleavage of target and non-target ssRNA substrate” value was “significantly reduced the cleavage of both target and non-target ssRNA substrate”.

B3: Asn997: LbuCas13a with Asn997 substituted with alanine (protein, UniProt C7NBY4 1-1159, looked up, variant N997A)
CRISPR-associated …: MKVTKVGGISHKKYTSEGRLVKSESEENRTDERLSALLNMRLDMYIKNPSSTETKENQKRIGKLKKFFSNKMVYLKDNTLSLKNGKKENIDREYSETDILESDVRDKKNFAVLKKIYLNENVNSEELEVFRNDIKKKLNKINSLKYSFEKNKANYQKINENNIEKVEGKSKRNIIYDYYRESAKRDAYVSNVKEAFDKLYKEEDIAKLVLEIENLTKLEKYKIREFYHEIIGRKNDKENFAKIIYEEIQNVNNMKELIEKVPDMSELKKSQVFYKYYLDKEELNDKNIKYAFCHFVEIEMSQLLKNYVYKRLSNISNDKIKRIFEYQNLKKLIENKLLNKLDTYVRNCGKYNYYLQDGEIATSDFIARNRQNEAFLRNIIGVSSVAYFSLRNILETENENDITGRMRGKTVKNNKGEEKYVSGEVDKIYNENKKNEVKENLKMFYSYDFNMDNKNEIEDFFANIDEAISSIRHGIVHFNLELEGKDIFAFKNIAPSEISKKMFQNEINEKKLKLKIFRQLNSANVFRYLEKYKILNYLKRTRFEFVNKNIPFVPSFTKLYSRIDDLKNSLGIYWKTPKTNDDNKTKEIIDAQIYLLKNIYYGEFLNYFMSNNGNFFEISKEIIELNKNDKRNLKTGFYKLQKFEDIQEKIPKEYLANIQSLYMINAGNQDEEEKDTYIDFIQKIFLKGFMTYLANNGRLSLIYIGSDEETNTSLAEKKQEFDKFLKKYEQNNNIKIPYEINEFLREIKLGNILKYTERLNMFYLILKLLNHKELTNLKGSLEKYQSANKEEAFSDQLELINLLNLDNNRVTEDFELEADEIGKFLDFNGNKVKDNKELKKFDTNKIYFDGENIIKHRAFYNIKKYGMLNLLEKIADKAGYKISIEELKKYSNKKNEIEKNHKMQENLHRKYARPRKDEKFTDEDYESYKQAIENIEEYTHLKNKVEFNELNLLQGLLLRILHRLVGYTSIWERDLRFRLKGEFPENQYIEEIFNFEAKKNVKYKGGQIVEKYIKFYKELHQNDEVKINKYSSANIKVLKQEKKDLYIRNYIAHFNYIPHAEISLLEVLENLRKLLSYDRKLKNAVMKSVVDILKEYGFVATFKIGADKKIGIQTLESEKIVHLKNLKKKKLMTDRNSEELCKLVKIMFEYKMEEKKSEN
For the molecule B3, in data set [1], the “cleavage of target and non-target ssRNA substrate” value is “significantly reduced the cleavage of both target and non-target ssRNA substrate”.

B4: SaCas9 T787A: T787A mutant of SaCas9 (protein, UniProt J7RUA5 1-1053, looked up, variant T787A)
CRISPR-associated …: MKRNYILGLDIGITSVGYGIIDYETRDVIDAGVRLFKEANVENNEGRRSKRGARRLKRRRRHRIQRVKKLLFDYNLLTDHSELSGINPYEARVKGLSQKLSEEEFSAALLHLAKRRGVHNVNEVEEDTGNELSTKEQISRNSKALEEKYVAELQLERLKKDGEVRGSINRFKTSDYVKEAKQLLKVQKAYHQLDQSFIDTYIDLLETRRTYYEGPGEGSPFGWKDIKEWYEMLMGHCTYFPEELRSVKYAYNADLYNALNDLNNLVITRDENEKLEYYEKFQIIENVFKQKKKPTLKQIAKEILVNEEDIKGYRVTSTGKPEFTNLKVYHDIKDITARKEIIENAELLDQIAKILTIYQSSEDIQEELTNLNSELTQEEIEQISNLKGYTGTHNLSLKAINLILDELWHTNDNQIAIFNRLKLVPKKVDLSQQKEIPTTLVDDFILSPVVKRSFIQSIKVINAIIKKYGLPNDIIIELAREKNSKDAQKMINEMQKRNRQTNERIEEIIRTTGKENAKYLIEKIKLHDMQEGKCLYSLEAIPLEDLLNNPFNYEVDHIIPRSVSFDNSFNNKVLVKQEENSKKGNRTPFQYLSSSDSKISYETFKKHILNLAKGKGRISKTKKEYLLEERDINRFSVQKDFINRNLVDTRYATRGLMNLLRSYFRVNNLDVKVKSINGGFTSFLRRKWKFKKERNKGYKHHAEDALIIANADFIFKEWKKLDKAKKVMENQMFEEKQAESMPEIETEQEYKEIFITPHQIKHIKDFKDYKYSHRVDKKPNRELINDALYSTRKDDKGNTLIVNNLNGLYDKDNDKLKKLINKSPEKLLMYHHDPQTYQKLKLIMEQYGDEKNPLYKYYEETGNYLTKYSKKDNGPVIKKIKYYGNKLNAHLDITDDYPNSRNKVVKLSLKPYRFDVYLDNGVYKFVTVKNLDVIKKENYYEVNSKCYEEAKKLKKISNQAEFIASFYNNDLIKINGELYRVIGVNNDLLNRIEVNMIDITYREYLENMNDKRPPRIIKTIASKTQSIKKYSTDILGNLYEVKSKKHPQIIKKG
Take B4: in data set [2], the DNA cleavage activity result is recorded as “reduced DNA cleavage activity”.

B5: D10A: D10A mutant of SaCas9 (protein, UniProt J7RUA5 1-1053, looked up, variant D10A)
CRISPR-associated …: MKRNYILGLAIGITSVGYGIIDYETRDVIDAGVRLFKEANVENNEGRRSKRGARRLKRRRRHRIQRVKKLLFDYNLLTDHSELSGINPYEARVKGLSQKLSEEEFSAALLHLAKRRGVHNVNEVEEDTGNELSTKEQISRNSKALEEKYVAELQLERLKKDGEVRGSINRFKTSDYVKEAKQLLKVQKAYHQLDQSFIDTYIDLLETRRTYYEGPGEGSPFGWKDIKEWYEMLMGHCTYFPEELRSVKYAYNADLYNALNDLNNLVITRDENEKLEYYEKFQIIENVFKQKKKPTLKQIAKEILVNEEDIKGYRVTSTGKPEFTNLKVYHDIKDITARKEIIENAELLDQIAKILTIYQSSEDIQEELTNLNSELTQEEIEQISNLKGYTGTHNLSLKAINLILDELWHTNDNQIAIFNRLKLVPKKVDLSQQKEIPTTLVDDFILSPVVKRSFIQSIKVINAIIKKYGLPNDIIIELAREKNSKDAQKMINEMQKRNRQTNERIEEIIRTTGKENAKYLIEKIKLHDMQEGKCLYSLEAIPLEDLLNNPFNYEVDHIIPRSVSFDNSFNNKVLVKQEENSKKGNRTPFQYLSSSDSKISYETFKKHILNLAKGKGRISKTKKEYLLEERDINRFSVQKDFINRNLVDTRYATRGLMNLLRSYFRVNNLDVKVKSINGGFTSFLRRKWKFKKERNKGYKHHAEDALIIANADFIFKEWKKLDKAKKVMENQMFEEKQAESMPEIETEQEYKEIFITPHQIKHIKDFKDYKYSHRVDKKPNRELINDTLYSTRKDDKGNTLIVNNLNGLYDKDNDKLKKLINKSPEKLLMYHHDPQTYQKLKLIMEQYGDEKNPLYKYYEETGNYLTKYSKKDNGPVIKKIKYYGNKLNAHLDITDDYPNSRNKVVKLSLKPYRFDVYLDNGVYKFVTVKNLDVIKKENYYEVNSKCYEEAKKLKKISNQAEFIASFYNNDLIKINGELYRVIGVNNDLLNRIEVNMIDITYREYLENMNDKRPPRIIKTIASKTQSIKKYSTDILGNLYEVKSKKHPQIIKKG
For the molecule B5, the DNA cleavage activity entry in data set [2] is on record as “almost no DNA cleavage activity”.
